# Assay results published in US20230374147A1 (HUMMINGBIRD BIOSCIENCE PTE, published 2023).
# Residue numbers refer to the chain shown, from its start.
# T1: His-tagged human BCMA (Acro Biosystems, Cat. #BCA-H522y) (human, UniProt Q02223 1-54)
# T1 construct: also called huBCMA; P1; not shown: His tag
# T1 sequence: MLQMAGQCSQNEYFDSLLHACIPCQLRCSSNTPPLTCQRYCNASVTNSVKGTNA
# T2: human BCMA expressed on cells (human, UniProt Q02223 1-184)
# T2 construct: the cell line is named under assay; also called wildtype human BCMA
# T2 sequence: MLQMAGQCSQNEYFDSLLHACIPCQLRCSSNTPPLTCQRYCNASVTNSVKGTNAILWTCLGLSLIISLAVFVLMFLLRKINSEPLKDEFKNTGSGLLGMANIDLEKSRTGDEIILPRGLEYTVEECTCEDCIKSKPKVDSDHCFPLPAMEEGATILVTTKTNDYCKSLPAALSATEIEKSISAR
# T3: His-tagged mouse BCMA (Acro Biosystems, BCA-M52H3) (mouse, UniProt O88472 1-49)
# T3 construct: Bought protein; not shown: His tag
# T3 chain: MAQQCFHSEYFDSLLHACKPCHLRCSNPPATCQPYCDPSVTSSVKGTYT
# T4: recombinant his-tagged human TACI (Sinobiological cat #11937-H08H) (human, UniProt O14836 1-165)
# T4 construct: Bought protein; also called Human TACI-His; huTACI; not shown: His tag
# T4 sequence: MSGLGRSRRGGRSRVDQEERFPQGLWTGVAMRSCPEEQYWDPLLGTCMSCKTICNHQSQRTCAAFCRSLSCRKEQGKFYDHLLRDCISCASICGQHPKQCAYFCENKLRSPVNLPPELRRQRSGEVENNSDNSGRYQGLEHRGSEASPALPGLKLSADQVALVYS
# B1: 539-SP5-D7 hIgG1 (antibody, V domains shown)
# VH: EVMLVDSGGNLVKPGGSLKLSCAASGFTFSNYVISWVRQTPEKRLEWVATISTVGTNTYYPDSVRGRFTISRDNAENTLYLQMSSLRSEDTAIYYCSRHKYGYDDPSYAMDYWGQGTSVTVSS
# VL: QLVLTQSSSASFSLGASAKLTCTLSSQHSTYTIEWYQQQPLKPPKYVMELKKDGSHSTGDGIPDRFSGSSSGADRYLSISNIQAEDEAIYICGVGDTVKEQFVYVFGGGTKVTVLG
# notes: Human-mouse chimeric antibody, human IgG1 format, lambda light chain; also called [4]
# B2: 538-SP5-B10 (antibody produced by the hybridoma) (antibody, V domains shown)
# VH: EVQLQQSGPELVKPGASVKMSCKASGYTFTSYVMHWVKQKPGRGLEWIAYILPFNDVTKYNEKFKGKATLTSDKSSNTAYMELSSLTSEDSAVYYCARWEWDDGYFDYWGQGTTLTVSS
# VL: DAVMTQTPLSLPVSLGDQASISCRSSQSLENSNGNTYLNWYLQKPGQSPQLLIYRVSNRFSGVLDRFSGSGSGTDFTLKISRVEAEDLGVYFCLQVSHVPFTFGAGTKLELK
# notes: Mouse antibody from B cell hybridoma (culture supernatant or IgG purified from it)
# B3: 539-SP7-F4 (antibody produced by the hybridoma) (antibody, V domains shown)
# VH: EVQLQQSGPELVKPGASMKISCKASGYSFTGYIMNWVKQSHGKNLEWIGLINPYNGDSIYNQKFKGKATLTVDKSSSTAYMELFSLTSEDSTVYYCAAGEEFAYWGQGTLVTVSA
# VL: DIQMTQTSSSLSASLGDRVTISCRASQDISIYLNWFQQKPDGTVKLLIYFTSRLHPGVPSRFSASGSGTDYSLTISHLEHEDIATYFCQQGNTLPRTFGGGTKVELK
# notes: as for B2
# B4: 539-SP1-C8 (antibody produced by the hybridoma) (antibody, V domains shown)
# VH: EVQLQQSGPELVKPGSSVKMSCKASGYTFTNYVMHWVKQKPGQGLEWIGYILPYNDGTKYNEKFKGKATLTSDKSSSTAYMEFSVLTSEDSAVYYCARYDYEGSFDYWGQGTALTVSS
# VL: DIQMTQTTSSLSASLGDRVTISCRASQDISNYLNWYQQKPDGTVKLLMCYTSRLHSGVPSRFSGSGSGTDFSLTISNLEQEDIATYFCQQGNTFPPTFGGGTKLEIK
# notes: as for B2
# B5: 552-LN2-F8 hIgG1 (antibody, V domains shown)
# VH: QIQLVQSGPELKKPGETVKISCKASGYTFTDYTMYWVKQAPGKGLKWMGWINTETGEPTYADDFKGRFVFSLETSANTAYLQINNLKNEDTATYFCAISYYYGMDYWGQGTSVTVTS
# VL: DIILTQSPASLAVSLGQRATITCRASKSVSTSGYNFVYWYQQKPGQPPKLLIYLASNLESGVPARFSGSGSGTDFTLNIHPVEEEDAATYYCQHSRELPRTFGGGTKLEIKR
# notes: Human-mouse chimeric antibody, human IgG1 format; also called [9]
# B6: 1C8-25 hIgG1 (antibody, V domains shown)
# VH: QVQLVQSGAEVKKPGASVKVSCKASGYTFTNYVMHWVRQAPGQRLEWMGYILPYNDGTKYSQKFQGRVTITRDTSASTAYMELSSLRSEDTAVYYCARYDWEGSFDYWGQGTTVTVSS
# VL: DIQMTQSPSSLSASVGDRVTITCRASQDIGNYLNWYQQKPGKAVKLLMRYTSRLHSGVPSRFSGSGSGTDFTLTISSLQPEDFATYYCQQGFTFPPTFGGGTKLEIKR
# notes: also called [95]
# B7: 1C8-27 hIgG1 (antibody, V domains shown)
# VH: B6 VH
# VL: B6 VL with R24A, G30S, F92N, T93R
# notes: also called [96]
# Tests used:
# [1] = target: T1, His-tagged human BCMA (Acro Biosystems, …); test: BLI, His-tagged human BCMA on HIS1K tip
# [2] = target: T2, human BCMA expressed on cells; test: flow cytometry, H929 cells (BCMA-expressing)
# [3] = target: T3, His-tagged mouse BCMA (Acro Biosystems, …); test: BLI, His-tagged mouse BCMA on HIS1K tip; R2 0.9322
# [4] = target: T1, His-tagged human BCMA (Acro Biosystems, …); test: BLI, His-tagged human BCMA on HIS1K tip, no APRIL; R2 0.9901
# [5] = target: T5, cynomolgous macaque BCMA expressed on CHOK1 cells; test: flow cytometry, CHOK1 cells transiently expressing cynomolgus BCMA
# T5 construct: also called cyno BCMA on cells
# [6] = target: T6, His-tagged cynomolgous macaque BCMA (Acro Biosystems, BCA-C52H7) (cynomolgus macaque, UniProt Q02223 1-54 (human entry)); test: BLI, His-tagged cynomolgus BCMA on HIS1K tip
# T6 construct: Bought protein; also called cyno BCMA; CyBCMA; not shown: His tag
# [7] = target: T6, His-tagged cynomolgous macaque BCMA …; test: BLI, His-tagged cynomolgus BCMA on HIS1K tip; R2 0.9501
# [8] = target: T3, His-tagged mouse BCMA (Acro Biosystems, …); test: BLI, His-tagged mouse BCMA on HIS1K tip
# [9] = target: T1, His-tagged human BCMA (Acro Biosystems, …); test: BLI, His-tagged human BCMA on HIS1K tip; R2 0.9901
# [10] = target: T2, human BCMA expressed on cells; test: flow cytometry, hybridoma supernatant, HEK293T cells stably expressing human BCMA
# [11] = target: T1, His-tagged human BCMA (Acro Biosystems, …); test: ELISA, hybridoma supernatant, coated His-tagged antigen; further: test concentration or dose not given here
# [12] = target: T3, His-tagged mouse BCMA (Acro Biosystems, …); test: as above
# [13] = target: T6, His-tagged cynomolgous macaque BCMA …; test: as above
# [14] = target: T1, His-tagged human BCMA (Acro Biosystems, …); test: ELISA, IgG purified from hybridoma supernatant, coated His-tagged antigen
# [15] = target: T3, His-tagged mouse BCMA (Acro Biosystems, …); test: as above
# [16] = target: T1, His-tagged human BCMA (Acro Biosystems, …); test: BLI, His-tagged human BCMA on HIS1K tip; R2 0.9973
# [17] = target: T6, His-tagged cynomolgous macaque BCMA …; test: ELISA, coated His-tagged cynomolgus BCMA
# [18] = target: T2, human BCMA expressed on cells; test: flow cytometry, HEK293 cells stably expressing human BCMA
# [19] = target: T4, recombinant his-tagged human TACI …; test: ELISA, coated His-tagged human TACI
# [20] = target: T6, His-tagged cynomolgous macaque BCMA …; test: BLI, His-tagged cynomolgus BCMA on HIS1K tip; R2 0.9625
# [21] = target: T1, His-tagged human BCMA (Acro Biosystems, …); test: BLI (Gator), antibody loaded on HFC biosensor, His-tagged antigen as analyte
# [22] = target: T4, recombinant his-tagged human TACI …; test: as above
# [23] = target: T6, His-tagged cynomolgous macaque BCMA …; test: as above
binder,measurement,setting,value
B1,Human BCMA response,[1],2.14
same,EC50 (read off the curve),[2],~0.3 mg/L
same,Kd,[3],4.86 nM
same,Kd,[4],< 0.001 nM
same,binding result,[5],binds
same,Cyno BCMA response,[6],0.265
same,Kd,[7],167 nM
same,Mouse BCMA response,[8],1.01
same,Kd,[9],< 0.001 nM
B2,% Parent (percent positive cells),[10],70.8%
same,ELISA values (OD 450 nm),[11],0.812 OD
same,ELISA values (OD 450 nm),[12],0.247 OD
same,ELISA values (OD 450 nm),[13],2.44 OD
same,EC50,[14],0.0358 mg/L
same,EC50,[15],21 mg/L
B3,% Parent (percent positive cells),[10],63.8%
same,ELISA values (OD 450 nm),[11],0.893 OD
same,ELISA values (OD 450 nm),[12],0.318 OD
same,ELISA values (OD 450 nm),[13],2.35 OD
same,EC50,[14],0.0182 mg/L
same,EC50,[15],14.6 mg/L
B4,% Parent (percent positive cells),[10],56.5%
same,ELISA values (OD 450 nm),[11],0.686 OD
same,ELISA values (OD 450 nm),[12],0.339 OD
same,ELISA values (OD 450 nm),[13],2.04 OD
same,EC50,[14],0.0299 mg/L
same,EC50,[15],9.19 mg/L
B5,Kd,[16],< 0.001 nM
same,Human BCMA response,[1],2.31
same,EC50 (read off the curve),[17],~0.08 mg/L
same,EC50 (read off the curve),[2],~0.1 mg/L
same,EC50 (read off the curve),[18],~0.5 mg/L
same,Kd,[4],< 0.001 nM
same,binding result,[5],binds
same,binding result,[19],no binding (tested: 10 ug/ml)
same,Cyno BCMA response,[6],1.58
same,Kd,[20],59.8 nM
B6,binding result,[21],binds
same,binding result,[22],binds
same,binding result,[23],binds
B7,binding result,[21],binds
same,binding result,[22],binds
same,binding result,[23],binds
